Here are results for five proteins from the PETadex activity labels (doi:10.1002/cssc.202101062).

Substrate in one data set: PET
The experiment in a line: Proxy for plastic degradation [Weight/mass loss]. The conditions noted are these: pH 8.

Substrate in data set [1]: gfPET
The experiment in a line: Proxy for plastic degradation [Weight/mass loss]. The conditions noted are these: pH 8.

Substrate in data set [2]: gfPET
Briefly: Proxy for plastic degradation [Released monomer concentration (HPLC/LC-MS) (TPA+MHET+BHET)].

B1: unnamed (protein)
chain: MANPYERGPNPTDALLEARSGPFSVSEENVSRLSASGFGGGTIYYPRENNTYGAVAISPGYTGTEASIAWLGERIASHGFVVITIDTITTLDQPDSRAEQLNAALNHMINRASSTVRSRIDSSRLAVMGHSMGGGGSLRLASQRPDLKAAIPLTPWHLNKNWSSVRVPTLIIGADLDTIAPVLTHARPFYNSLPTSISKAYLELDGATHFAPNIPNKIIGKYSVAWLKRFVDNDTRYTQFLCPGPRDGLFGEVEEYRSTCPF
Consider B1, for which the “Proxy for plastic degradation” value in the data set with PET (45 °C) amounted to 0.5%; in the data set with PET (50 °C), 1%; with PET (55 °C) it was 1%; in the data set with PET (60 °C) it was 1%; in the data set with PET (65 °C) it was 15%; with PET (70 °C) it was 18%. The “Proxy for plastic degradation” value with PET (75 °C) was 15%.

B2: unnamed (protein)
chain: MANPYERGPNPTDALLEARSGPFSVSEENVSRLSASGFGGGTIYYPRENNTYGAVAISPGYTGTEASIAWLGERIASHGFVVITIDTITTLDQPDSRAEQLNAALNHMINRASSTVRSRIDSSRLAVMGHSMGGGGSLRLASQRPDLKAAIPLTPWHLNKNWSSVTVPTLIIGADLDTIAPVATHAKPFYNSLPSSISKAYLELDGATHFAPNIPNKIIGKYSVAWLKRFVDNDTRYTQFLCPGPRDGLFGEVEEYRSTCPF
On to B2, for which the “Proxy for plastic degradation” value in the data set with gfPET [1] (65 °C) is 7%; in the data set with gfPET [1] (70 °C) it was 8%; with gfPET [1] (75 °C) it was 2%; in the data set with gfPET [2] (40 °C) it was 0 mmol/h; with gfPET [2] (50 °C), 0.05 mmol/h; in the data set with gfPET [2] (55 °C), 0.08 mmol/h. For the same protein, the “Proxy for plastic degradation” value turned out to be 0.18 mmol/h with gfPET [2] (60 °C); 0.2 mmol/h in the data set with gfPET [2] (65 °C); 0.2 mmol/h in the data set with gfPET [2] (70 °C); 0.08 mmol/h with gfPET [2] (75 °C); 0.05 mmol/h with gfPET [2] (80 °C); 0 mmol/h with gfPET [2] (85 °C).

B3: unnamed (protein)
chain: MDNPYERGPDPTTQSVEAARGPYAVSQITVGGQFGSYSGGTIYYPTSTADGKFGAVAIAPGFLSFQSSVAWLGPRLASQGFVVMTIDTGTIFDQPAQRGDQLLDALDFLTQRSSVKDRIDPNRLAVAGWSMGGGGSLEAAADRPSLKAAIPMAGWNLNTNWSRLTTPVLVVGVQNDLIAPVGSHSEPFYNSIRSEKAYLELAGGSHFTVTSANTPQAKLMISWLKRFVDNDTRYEQFICPGPSRGFSVSEYRSTCPF
Take B3: the “Proxy for plastic degradation” value in the data set with PET (45 °C) came out at 1%; with PET (50 °C), 1.5%; with PET (55 °C), 1%; with PET (60 °C), 1%; in the data set with gfPET [2] (40 °C), 0 mmol/h; in the data set with gfPET [2] (50 °C) it was 0.2 mmol/h. The “Proxy for plastic degradation” value with gfPET [2] (55 °C) worked out at 0.21 mmol/h; in the data set with gfPET [2] (60 °C), 0.1 mmol/h; with gfPET [2] (65 °C), 0 mmol/h; with gfPET [2] (70 °C), 0 mmol/h; in the data set with gfPET [2] (75 °C), 0 mmol/h; with gfPET [2] (80 °C), 0 mmol/h. Further, the “Proxy for plastic degradation” value in the data set with gfPET [2] (85 °C) was determined as 0 mmol/h.

B4: unnamed (protein)
chain: MDNPYERGPDPTTQSVEAARGPYAVSQITVGGQFGSYSGGTIYYPTSTTDGKFGAVAIAPGFLSFQSSVAWLGPRIASQGFVVMTIDTGTIFDQPAQRGDQLLDALDFLTQRSSVKDRIDPNRLAVAGWSMGGGGSLEAAADRPSLKAAIPMAGWNLNTNWSRLTTPVLVVGVQNDLIAPVAMHSEPFYNSIRSEKAYLELAGGSHFTVTSANTPQAKLMISWLKRFVDNDTRYEQFICPGPSRGFSVSEYRSTCPF
Take B4: the “Proxy for plastic degradation” value with PET (45 °C) is 2%; in the data set with PET (50 °C), 3%; with PET (55 °C), 5%; in the data set with PET (60 °C), 8%; in the data set with gfPET [2] (40 °C), 0 mmol/h; with gfPET [2] (50 °C), 0.1 mmol/h. In addition, the “Proxy for plastic degradation” value with gfPET [2] (55 °C) came to 0.18 mmol/h; with gfPET [2] (60 °C), 0.1 mmol/h; with gfPET [2] (65 °C) it was 0 mmol/h; with gfPET [2] (70 °C), 0 mmol/h; with gfPET [2] (75 °C), 0 mmol/h; in the data set with gfPET [2] (80 °C), 0 mmol/h. Moreover, the “Proxy for plastic degradation” value with gfPET [2] (85 °C) came to 0 mmol/h.

B5: unnamed (protein)
chain: MENPYERGPDPTTQSVEAARGPYAVSQITVGGQFGSYSGGTIYYPTSTADGKFGAVAIAPGFLSFQSSVAWLGPRIASQGFVVMTIDTGTIFDQPAQRGDQLLDALDFLTQRSSVKDRIDPNRLAVAGWSWGGGGSLEAAADRPSLKAAIPMAGWNLNTNWSRLTTPVLVVGVQNDLIAPVAMHSEPFYNSIRSEKAYLELAGGSHFTVTSANTPQAKLMISWLKRFVDNDTRYEQFICPGPSRGFSVSEYRSTCPY
Take B5: the “Proxy for plastic degradation” value with PET (45 °C) was determined as 0.5%; in the data set with PET (50 °C), 1%; in the data set with PET (55 °C), 0.5%; in the data set with PET (60 °C) it was 0.5%; in the data set with gfPET [2] (40 °C), 0 mmol/h; with gfPET [2] (50 °C) it was 0.1 mmol/h. For the same protein, the “Proxy for plastic degradation” value with gfPET [2] (55 °C) is 0.13 mmol/h; in the data set with gfPET [2] (60 °C), 0.05 mmol/h; with gfPET [2] (65 °C), 0 mmol/h; with gfPET [2] (70 °C) it was 0 mmol/h; with gfPET [2] (75 °C), 0 mmol/h; in the data set with gfPET [2] (80 °C) it was 0 mmol/h. In the data set with gfPET [2] (85 °C), the “Proxy for plastic degradation” value worked out at 0 mmol/h.
